Results from patent US20230295597.
Changes are numbered by the printed parent chain. Numbers in names are those of the source.

T1: von Willebrand factor (vWF), substrate of the ADAMTS-13 activity assay, P04275
T1 chain: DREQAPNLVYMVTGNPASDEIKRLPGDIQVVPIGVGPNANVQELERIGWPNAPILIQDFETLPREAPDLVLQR

B1: trADAMTS-13^V313D (truncated ADAMTS-13 mutant, Val313 to Asp) (protein)
chain: AAGGILHLELLVAVGPDVFQAHQEDTERYVLTNLNIGAELLRDPSLGAQFRVHLVKMVILTEPEGAPNITANLTSSLLSVCGWSQTINPEDDTDPGHADLVLYITRFDLELPDGNRQVRGVTQLGGACSPTWSCLITEDTGFDLGVTIAHEIGHSFGLEHDGAPGSGCGPSGHVMASDGAAPRAGLAWSPCSRRQLLSLLSAGRARCVWDPPRPQPGSAGHPPDAQPGLYYSANEQCRDAFGPKAVACTFAREHLDMCQALSCHTDPLDQSSCSRLLVPLLDGTECGVEKWCSKGRCRSLVELTPIAAVHGRWSSWGPRSPCSRSCGGGVVTRRRQCNNPRPAFGGRACVGADLQAEMCNTQACEKTQLEFMSQQCARTDGQPLRSSPGGASFYHWGAAVPHSQGDALCRHMCRAIGESFIMKRGDSFLDGTRCMPSGPREDGTLSLCVSGSCRTFGCDGRMDSQQVWDRCQVCGGDNSTCSPRKGSFTAGRAREYVTFLTVTPNLTSVYIANHRPLFTHLAVRIGGRYVVAGKMSISPNTTYPSLLEDGRVEYRVALTEDRLPRLEEIRIWGPLQEDADIQVYRRYGEEYGNLTRPDITFTYFQPKPRQADYKDHDGDYKDHDIDYKDDDDK
B2: trADAMTS-13^R312K (truncated ADAMTS-13 mutant, Arg312 to Lys) (protein)
chain: B1 chain with R238K, D239V
B3: truncated recombinant human ADAMTS-13 variant (MDTCS), trADAMTS-13 WT (protein)
chain: RSAAGGILHLELLVAVGPDVFQAHQEDTERYVLTNLNIGAELLRDPSLGAQFRVHLVKMVILTEPEGAPNITANLTSSLLSVCGWSQTINPEDDTDPGHADLVLYITRFDLELPDGNRQVRGVTQLGGACSPTWSCLITEDTGFDLGVTIAHEIGHSFGLEHDGAPGSGCGPSGHVMASDGAAPRAGLAWSPCSRRQLLSLLSAGRARCVWDPPRPQPGSAGHPPDAQPGLYYSANEQCRVAFGPKAVACTFAREHLDMCQALSCHTDPLDQSSCSRLLVPLLDGTECGVEKWCSKGRCRSLVELTPIAAVHGRWSSWGPRSPCSRSCGGGVVTRRRQCNNPRPAFGGRACVGADLQAEMCNTQACEKTQLEFMSQQCARTDGQPLRSSPGGASFYHWGAAVPHSQGDALCRHMCRAIGESFIMKRGDSFLDGTRCMPSGPREDGTLSLCVSGSCRTFGCDGRMDSQQVWDRCQVCGGDNSTCSPRKGSFTAGRAREYVTFLTVTPNLTSVYIANHRPLFTHLAVRIGGRYVVAGKMSISPNTTYPSLLEDGRVEYRVALTEDRLPRLEEIRIWGPLQEDADIQVYRRYGEEYGNLTRPDITFTYFQPKPRQADYKDHDGDYKDHDIDYKDDDDK
B4: trADAMTS-13^R312A (truncated ADAMTS-13 mutant, Arg312 to Ala) (protein)
chain: B1 chain with R238A, D239V
B5: trADAMTS-13^V313A (truncated ADAMTS-13 mutant, Val313 to Ala) (protein)
chain: B1 chain with D239A

Tests used:
[1] = target: T1, von Willebrand factor (vWF), substrate …
[2] = target: anti ADAMTS-13 autoantibodies in plasma from patients with acquired ADAMTS-13 deficiency (TTP plasma)
[3] = target: ultralarge von Willebrand factor multimers present in human plasma, P04275

Row | Protein | catalytic activity on vWF [1] | further results
1 | B1 | – | decrease of proteolytic activity on vWF against the un-mutated variant [1]: replacing V^313 with D (trADAMTS-13^V313D) decreased by more than 50% the proteolytic activity of the resultant ADAMTS-13 variant on vWF (FIG. 6B)
2 | B2 | trADAMTS-13^R312K was the most potent variant exhibiting enhanced proteolytic activity on vWF (FIG. 6B), in comparison with the un-mutated protein trADAMTS-13 WT | proteolytic activity on vWF after 2 hours or 24 hours with TTP plasma [2]: The substantial resistance to inhibition of trADAMTS-13^R312K was shown around 2 hours up to 24 hours following incubation with TTP plasma (FIG. 9B)
3 | B3 | – | proteolysis of vWF multimers in human plasma, trADAMTS-13 300 nM, Western blot with anti-vWF antibody [3]: the inactivation of trADAMTS-13 by tPA prevented the proteolysis of ULvWV multimers present in human plasma (FIG. 4D)
4 | B4 | trADAMTS-13^R312A catalytic activity was not affected significantly by replacing R^312 with A (FIG. 6B) | –
5 | B5 | Replacing V^313 with A (trADAMTS-13^V313A), also had no significant effect on its proteolytic activity on vWF (FIG. 6B) | –
